Results on 2 substances are retold here after PMC6265470, “Structural, functional and biological insights into the role of Mycobacterium tuberculosis VapBC11 toxin–antitoxin system: targeting a tRNase to tackle mycobacterial adaptation” (Nucleic Acids Research, 2018).

For data set [1], the system named is VapC11 D5A (Mycobacterium tuberculosis). The data set is described as follows: BLI. The following applies: BLI: 20 mM HEPES pH 7.5, 150 mM NaCl, 25 C.
The target of data set [2] is VapC11 as co-expressed and co-purified with VapB11 in the VapBC11 complex (Mycobacterium tuberculosis) (UniProt P9WFA4). The data set is described as follows: […] (pH 8.0), 150 mM NaCl, […].

tRNA-LeuCAG (leuT): the Kd in data set [1] is 0.5 nM.
Take “VapB11 (residues 6-72) as co-expressed and co-purified with VapC11 in the VapBC11 complex (from UniProt P9WLU2 6-72) (domain or fragment)”: in data set [2], the percent of the population as heterooctamer turned out to be 80%, the stoichiometry N (VapB11 per VapC11 (2:4)) amounted to 0.5 and the stoichiometry N (VapB11 per VapC11 (4:4)) was 1.
